T1: TWEAK (human, UniProt O43508 94-249, limits assumed)
T1 construct: The method paragraph says only 'TWEAK'; also called human TWEAK; TNF-related weak inducer of apoptosis
T1 sequence (looked up): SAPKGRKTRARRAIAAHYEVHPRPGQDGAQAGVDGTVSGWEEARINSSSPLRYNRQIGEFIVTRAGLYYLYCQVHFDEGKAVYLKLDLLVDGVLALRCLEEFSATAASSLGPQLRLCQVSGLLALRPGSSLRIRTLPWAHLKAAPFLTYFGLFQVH

T2: human IL17 (human, UniProt Q16552 24-155)
T2 construct: for that reason an apparent KD is reported; also called IL17-A
T2 sequence (looked up): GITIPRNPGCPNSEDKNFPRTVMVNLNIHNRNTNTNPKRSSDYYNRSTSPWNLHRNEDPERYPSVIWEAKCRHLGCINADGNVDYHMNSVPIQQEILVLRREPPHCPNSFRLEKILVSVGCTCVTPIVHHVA

B1: TweakIL17-0129 (bispecific antibody, human IgG4 S228P, kappa)
light 1: DIVMTQSPLSLPVTPGEPASISCRSSQSLVHSNGDTYFHWYLQKPGQSPQLLIYKVSNRFSGVPDRFSGSGSGTDFTLKISRVEAEDVGVYYCSQTTHAPFTFGQGTKLEIKRTVAAPSVFIFPPSDEKLKSGTASVVCLLNNFYPREAKVQWKVDNALQSGNSQESVTEQDSKDSTYSLSSTLTLSKADYEKHKVYACEVTHQGLSSPVTKSFNRGEC
heavy 1: EVQLVESGGGLVQPGGSLRLSCAASGFSLDSYGVHWVRQATGKGLEWVSVIWSDGTTTYNSALKSRFTISRENAKNSLYLQMNSLRAGDTAVYYCARDTHYRLYYYAMDYWGQGTTVTVSSASTKGPSVFPLAPCSRSTSESTAALGCLVEDYFPEPVTVSWNSGALTSGVHTFPAVLQSSGLYSLSSVVTVPSSSLGTKTYTCNVDHKPSNTKVDKRVESKYGPPCPPCPAPEFEGGPSVFLFPPKPKDTLMISRTPEVTCVVVDVSQEDPEVQFNWYVDGVEVHNAKTKPREEQFNSTYRVVSVLTVLHQDWLNGKEYKCKVSNKGLPSSIEKTISKAKGQPREPQVCTLPPSQEEMTKNQVSLSCAVKGFYPSDIAVEWESNGQPENNYKTTPPVLDSDGSFFLVSRLTVDKSRWQEGNVFSCSVMHEALHNHYTQKSLSLSLGK
light 2: DIQMTQSPSSVSASVGDRVTITCQASQNIYSNLAWYQQKPGKAPKLLIYTASYLASGVPSRFSGSGSGTDYTLTISSLQPEDFATYYCQTAYYNSRPDTVAFGGGTKVEIKSSASTKGPSVFPLAPCSRSTSESTAALGCLVKDYFPEPVTVSWNSGALTSGVHTFPAVLQSSGLYSLSSVVTVPSSSLGTKTYTCNVDHKPSNTKVDKRVESKYG
heavy 2: QVQLVQSGAEVKKPGSSVKVSCKASGFDFSTYYMSWVRQAPGQGLEWMGTVYVRQGTTYYASWLNGRVTITADESTSTAYMELSSLRSEDTAVYYCARGGYNYDDAFVIWGQGTLVTVSSASVAAPSVFIFPPSDEQLKSGTASVVCLLNNFYPREAKVQWKVDNALQSGNSQESVTEQDSKDSTYSLSSTLTLSKADYEKHKVYACEVTHQGLSSPVTKSFNRGECPPCPPCPAPEFEGGPSVFLFPPKPKDTLMISRTPEVTCVVVDVSQEDPEVQFNWYVDGVEVHNAKTKPREEQFNSTYRVVSVLTVLHQDWLNGKEYKCKVSNKGLPSSIEKTISKAKGQPREPQVYTLPPCQEEMTKNQVSLWCLVKGFYPSDIAVEWESNGQPENNYKTTPPVLDSDGSFFLYSRLTVDKSRWQEGNVFSCSVMHEALHNHYTQKSLSLSLGK
notes: CrossMAb CH1-CL, knob-into-hole with S354C/Y349C
B2: TweakIL17-0132 (bispecific antibody, human IgG4 S228P, kappa)
light 1: B1 light 1 with E128K, K129R
heavy 1: B1 heavy 1 with K217E
light 2: B1 light 2
heavy 2: B1 heavy 2
notes: as for B1
B3: TweakIL17-0130 (bispecific antibody, human IgG4 S228P, kappa)
light 1: B1 light 1 with E128K, K129Q
heavy 1: B1 heavy 1 with E151K, K217E
light 2: B1 light 2
heavy 2: B1 heavy 2
notes: as for B1
B4: TweakIL17-0134 (bispecific antibody, human IgG4 S228P, kappa)
light 1: B1 light 1
heavy 1: B1 heavy 1
light 2: B1 light 2
heavy 2: B1 heavy 2 with Q137E
notes: as for B1
B5: TweakIL17-0049 (bispecific antibody, human IgG4 S228P, kappa)
light 1: B1 light 1 with K129Q
heavy 1: B1 heavy 1 with E151K
light 2: B1 light 2
heavy 2: B1 heavy 2
notes: also called TweakIL17-0049 (control)

Substitutions are numbered along the chain they refer to. Names and notes keep the numbering of the source.

One assay addresses T1, TWEAK. Nature of the assay: SPR (Biacore), TWEAK amine-coupled on C1 chip, bispecific antibody as analyte, 1:1 Langmuir. Here is the method:
Around 100 RU of TWEAK was immobilized on the C1 chip surface at pH 5.0 using an amine coupling kit supplied by the GE Healthcare. The sample and system buffer was PBS-T (10 mM phosphate buffered saline including 0.05% Tween 20) pH 7.4. Association was measured by injection the bispecific antibody in various concentrations in solution for 3 min at a flow of 30 μl/min starting with 50 nM in 1:1 serial dilutions. The dissociation phase was monitored for up to 10 min and triggered by switching from the sample solution to running buffer. The surface was regenerated three times by 30 sec wash with a 3 M MgCl2 solution at a flow rate of 30 μl/min. Bulk refractive index differences were corrected by subtracting the response obtained from a blank-coupled surface. Blank injections are also subtracted (=double referencing). For calculation of KD and other kinetic parameters, the Langmuir 1:1 model was used.
(§1) Binding of the multispecific antibodies to their respective target antigens, i.e. IL17 and TWEAK, was assessed by Biacore® as described in the general methods section.
On the technique in general: SPR reads the build-up and loss of mass on a sensor chip optically.
In general, koff refers to a measure of how fast the partners let go of each other. Read a high koff as fast dissociation. As usually defined, the kon is the second-order rate constant of association. A low value points to slow association. Consider B1, for which the Kd is less than 0.1 nM, the koff turned out to be 2.64e-05 s⁻¹ and the kon turned out to be 707000 M⁻¹ s⁻¹.

As for B2, the Kd was less than 0.1 nM, the koff came to 4.79e-05 s⁻¹ and the kon was 1.17e+06 M⁻¹ s⁻¹.

Consider B3, for which the Kd was less than 0.1 nM, the koff was determined as 2.83e-05 s⁻¹ and the on-rate constant (kon) was 859000 M⁻¹ s⁻¹.

B4 had a Kd of less than 0.1 nM, a koff of 3e-05 s⁻¹ and a kon of 870000 M⁻¹ s⁻¹.

The molecule B5 gave a Kd of less than 0.1 nM, a koff of 4.82e-05 s⁻¹ and a kon of 1.27e+06 M⁻¹ s⁻¹.

The next assay has as its target T2, human IL17. Nature of the assay: SPR (Biacore), bispecific antibody captured by anti-human F(ab')2, human IL17 as analyte, 1:1 Langmuir. The method, then: (§2) Around 6000 resonance units (RU) of the capturing system (15 μg/ml goat anti human F(ab′)2; Order Code: 28958325; GE Healthcare Bio-Sciences AB, Schweden) were coupled on a CMS chip at pH 5.0 by using an amine coupling kit supplied by the GE Healthcare. The sample and system buffer was PBS-T (10 mM phosphate buffered saline including 0.05% Tween 20) pH 7.4. The bispecific antibody was captured by injecting a 50 nM solution for 90 sec at a flow of 10 μl/min. Association was measured by injection human IL17 in various concentrations in solution for 3 min at a flow of 30 μl/min starting with 50 nM in 1:1 serial dilutions. The dissociation phase was monitored for up to 10 min and triggered by switching from the sample solution to running buffer. The surface was regenerated twice by 60 sec wash with a 10 mM glycine pH 2.1 solution at a flow rate of 30 μl/min. Bulk refractive index differences were corrected by subtracting the response obtained from a goat anti human F(ab′)2 surface. Blank injections are also subtracted (=double referencing). For calculation of apparent KD and other kinetic parameters, the Langmuir 1:1 model was used.
as §1
B1 gave a koff of 0.000204 s⁻¹ and a kon of 1.09e+07 M⁻¹ s⁻¹.

For B2, the koff was found to be 0.00013 s⁻¹ and the kon was determined as 1.39e+06 M⁻¹ s⁻¹.

As to B3, the koff was determined as 0.000194 s⁻¹ and the association rate constant (kon) came out at 1.04e+07 M⁻¹ s⁻¹.

Turning to B4, the koff turned out to be 0.000208 s⁻¹ and the kon is 1.1e+07 M⁻¹ s⁻¹.

B5 yielded a koff of 0.000123 s⁻¹ and a kon of 1.34e+06 M⁻¹ s⁻¹.

The target of a further assay is T2, human IL17. Nature of the assay: SPR (Biacore), bispecific antibody captured by anti-human F(ab')2, human IL17 as analyte, 1:1 Langmuir, apparent KD. Here is the method: as §2, §1
Consider B1, for which the Kd is less than 0.1 nM.

Take B2: the Kd was less than 0.1 nM.

As to B3, the Kd is less than 0.1 nM.

Take B4: the Kd is less than 0.1 nM.

On to B5, for which the Kd is less than 0.1 nM.
